Reference: US20210017269A1 (GlaxoSmithKline, published 2021)
Each block holds one binder with its values, some of them ahead of it.

Columns and labels:
[1] = target: T1, human IL-5 (recombinant) (human, UniProt P05113 20-134); assay: cell-based or functional assay
[2] = target: T1, human IL-5 (recombinant); assay: SPR Biacore 4000, 25 °C, antibody captured on protein A, human IL-5 as analyte
[3] = target: T2, human neonatal Fc receptor (FcRn) (human, UniProt P55899 24-297; P61769 21-119, limits assumed); assay: SPR Biacore T200, 37 °C, pH 6.0, antibody captured on immobilised IL-5, FcRn as analyte
T2 construct: Recombinant human FcRn; also called human FcRn; recombinant human neonatal receptor
Method: (§1) Table 17 legend/description: Comparison of binding affinity of 28Y042-7F11-1 and mepolizumab for human FcRn at pH 6.0 and pH 7.4.
(§2) The binding affinity of 28Y042-7F11-1 and mepolizumab to human FcRn at pH 6.0 and pH 7.4 was assessed using a BIACORE T200 instrument at 37° C. Human recombinant IL-5 was diluted in acetate buffer pH 5.0 and immobilised to a level of 535 RU by amine coupling on to a CMS chip (GE, BR100530). 28Y042-7F11-1 or mepolizumab were captured by flowing (5 μl/min) a 100 nM solution of either mAb in HBS-EP (Teknova, H8022) buffer for 24 seconds over the chip surface. Following capture of the antibody via the immobilised IL-5, cycles of varying concentrations (0.5 μM to 32 μM) of human FcRn were flowed over the chip surface at 5 μ1/min for 120 seconds contact time followed by 80 seconds dissociation for each cycle. At the completion of each cycle, the chip surface was regenerated using 10 mM Glycine pH 1.5 for 5 seconds at 50 μ1/min followed by 10mM NaOH for 5 seconds at 50 μl/min. FcRn cycles were performed for each concentration at pH 6.0 (HBS-EP+, Teknova, Cat: H8022, pH 6.0) and pH 7.4 (HBS-EP). A molecular weight of 42929 Da for human FcRn was used in the calculations.

[4] = target: T1, human IL-5 (recombinant); assay: SPR Biacore T200, 37 °C
[5] = target: T3, cynomolgus IL-5 (cynomolgus); assay: SPR Biacore T200, 37 °C
T3 construct: also called cyno IL-5

[6] = target: T2, human neonatal Fc receptor (FcRn); assay: ProteOn SPR, human FcRn, pH 6.0
[7] = target: T2, human neonatal Fc receptor (FcRn); assay: SPR Biacore T200, 37 °C, pH 6.0
Method: as §1, §2

[8] = target: T2, human neonatal Fc receptor (FcRn); assay: ProteOn SPR, human FcRn, pH 6.0; remark: listed apart in the source
[9] = target: T2, human neonatal Fc receptor (FcRn); assay: ProteOn SPR, human FcRn, pH 7.4
[10] = target: T1, human IL-5 (recombinant); assay: KinExA solution phase affinity, 25 °C
Method: Kinetic analyses were performed to compare 28Y042-7F11-1, mepolizumab, and GSK3559090A (a comparator IgG1 anti-IL-5 mAb molecule based). Due to the high affinity of 28Y042-7F11-1, it was not possible to accurately determine the dissociation rate by Biacore 4000 at 25° C.; therefore KINEXA analysis was used to calculate an accurate affinity for 28Y042-7F11-1 binding to human IL-5 at 25° C.
Solution phase affinity measurements were made using Sapidyne's KINEXA 3200 instrument. The method relied on the detection of free antibody at equilibrium in a titrated series of antigen concentrations. For detection, a bead matrix was created using NHS-activated SEPHEROSE beads (GE Healthcare, 17-0906-01) coated with human IL-5. For affinity determination, a fixed concentration of antibody was incubated with a dilution series of human IL-5 concentrations and binding was allowed to reach equilibrium before the samples were run on the KINEXA 3200 instrument. Each solution was passed over an aliquot of the antigen beads where free antibody bound to the antigen coated beads and was detected using an anti-human IgG antibody (DYLIGHT 649-AFFINIPURE F(ab′)2 fragment goat anti-human IgG; Jackoson Immunoresearch, 109-496-170), with fresh antigen beads used to measure each sample.

[11] = target: T4, human complement component C1q (human, UniProt P02745 23-245; P02746 28-253; P02747 29-245); assay: ProteOn XPR36 SPR, antibody immobilised, C1q as analyte, equilibrium model
T4 construct: C1q from Sigma (C1740); also called human recombinant soluble complement C1q
Method: Binding of 28Y042-7F11-1 to human recombinant soluble complement C1q was assessed using the PROTEOn XPR36 (BioRad™) biosensor instrument. A control antibody containing the YTE change to its Fc region was included as a control.
The antibodies to be tested were immobilised on a GLC chip (Bio-Rad, 176-5011) by primary amine coupling (GE Healthcare, BR-1000-50). Recombinant C1q (Sigma, C1740) was passed over the immobilised antibodies at 512 nM, 128 nM, 32 nM, 8 nM, 2 nM and 0 nM (i.e., buffer alone) and a blank activated and deactivated flow cell was used to double reference binding curves. The running buffer for binding analysis was HBS-EP (pH7.4, Teknova, H8022) with 10 mM CaCl₂. Data were fitted to the equilibrium model, inherent to the PROTEON XPR36 (BioRad™) analysis software using a global R-max value.

[12] = target: T2, human neonatal Fc receptor (FcRn); assay: SPR Biacore T200, 37 °C, pH 7.4, antibody captured on immobilised IL-5, FcRn as analyte
Method: as §1, §2

T4 sequence (P02745 23-245 limits assumed, chain 1 of 3): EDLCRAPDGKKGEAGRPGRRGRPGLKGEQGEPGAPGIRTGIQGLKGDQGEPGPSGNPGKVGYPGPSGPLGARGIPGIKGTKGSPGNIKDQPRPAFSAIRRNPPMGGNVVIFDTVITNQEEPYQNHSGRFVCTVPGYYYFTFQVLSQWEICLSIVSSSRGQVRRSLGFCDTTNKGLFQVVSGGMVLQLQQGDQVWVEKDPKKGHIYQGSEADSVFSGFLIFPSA
T4 sequence (P02746 28-253 limits assumed, chain 2 of 3): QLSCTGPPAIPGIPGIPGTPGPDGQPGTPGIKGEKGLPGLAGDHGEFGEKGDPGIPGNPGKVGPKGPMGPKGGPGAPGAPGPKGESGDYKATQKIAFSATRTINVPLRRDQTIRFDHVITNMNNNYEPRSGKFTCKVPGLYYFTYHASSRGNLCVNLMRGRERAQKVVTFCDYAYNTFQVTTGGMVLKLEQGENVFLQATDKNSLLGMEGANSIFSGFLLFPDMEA
T4 sequence (P02747 29-245 limits assumed, chain 3 of 3): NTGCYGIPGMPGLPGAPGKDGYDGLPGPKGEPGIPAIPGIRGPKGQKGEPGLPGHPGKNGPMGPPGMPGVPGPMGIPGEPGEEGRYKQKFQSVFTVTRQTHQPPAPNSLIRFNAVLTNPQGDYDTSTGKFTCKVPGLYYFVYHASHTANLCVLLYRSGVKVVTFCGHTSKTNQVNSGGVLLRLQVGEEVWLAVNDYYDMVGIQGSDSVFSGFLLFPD

IC50 of inhibition of human IL-5 induced TF-1 cell proliferation [1]: 0.105 nM
Kd [2]: 0.123 nM
Kd [3]: 2080 nM
B1: mepolizumab (antibody)
chain 1: not shown
chain 2: not shown

IC50 in the TF-1 cell assay after thermal stress (1 week at 40 °C in acetate or phosphate buffer) [1]: 0.004 to 0.005 nM
IC50 of inhibition of human IL-5 induced TF-1 cell proliferation [1]: 0.004 nM
fold improvement in TF-1 cell assay potency compared to mepolizumab [1]: ~30 fold
Kd [4]: 0.0391 nM
Kd [5]: 0.0239 nM
fold increase in affinity compared to the human IgG1 wild type control [6]: ~3 fold
fold increase in affinity compared to mepolizumab [7]: ~13 fold
Kd [8]: 130 nM
Kd [9]: 2650 nM
Kd [10]: 0.0105 nM
Kd [11]: 750 nM
Kd [3]: 157 nM
Kd [12]: 16200 nM
B2: 28Y042-7F11-1 (antibody, human IgG1, kappa)
heavy: QVTLRESGPALVKPTQTLTLTCTVSGFSLTGSSVHWVRQPPGKGLEWLGVIWASGGTDYNSALMSRLSISKDTSRNQVVLTMTNMDPVDTATYYCARDPPSGLLRLDYWGRGTLVTVSSASTKGPSVFPLAPSSKSTSGGTAALGCLVKDYFPEPVTVSWNSGALTSGVHTFPAVLQSSGLYSLSSVVTVPSSSLGTQTYICNVNHKPSNTKVDKRVEPKSCDKTHTCPPCPAPELLGGPSVFLFPPKPKDTLYITREPEVTCVVVDVSHEDPEVKFNWYVDGVEVHNAKTKPREEQYNSTYRVVSVLTVLHQDWLNGKEYKCKVSNKALPAPIEKTISKAKGQPREPQVYTLPPSREEMTKNQVSLTCLVKGFYPSDIAVEWESNGQPENNYKTTPPVLDSDGSFFLYSKLTVDKSRWQQGNVFSCSVMHEALHNHYTQKSLSLSPGK
light: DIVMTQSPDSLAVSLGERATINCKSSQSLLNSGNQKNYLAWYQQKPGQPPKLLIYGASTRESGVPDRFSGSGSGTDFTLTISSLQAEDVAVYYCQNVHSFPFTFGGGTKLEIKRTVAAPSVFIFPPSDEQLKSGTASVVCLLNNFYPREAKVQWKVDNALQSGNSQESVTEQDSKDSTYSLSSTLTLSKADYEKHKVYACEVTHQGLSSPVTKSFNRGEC
notes: Recombinant humanized monoclonal antibody, IgG1 kappa, two heavy and two light chains; also called GSK3511294
